Tests used:
[1] = molecular target: LDL receptor-related protein 1 (LRP1), purified from human placenta (human) (UniProt Q07954); assay: SPR equilibrium KD relative to I91L PAI-1
[2] = molecular target: LDL receptor-related protein 1 (LRP1), purified from human placenta (human) (UniProt Q07954); assay: SPR equilibrium analysis, LRP1 immobilised

Sequence of UniProt Q07954 (Q07954 20-4544): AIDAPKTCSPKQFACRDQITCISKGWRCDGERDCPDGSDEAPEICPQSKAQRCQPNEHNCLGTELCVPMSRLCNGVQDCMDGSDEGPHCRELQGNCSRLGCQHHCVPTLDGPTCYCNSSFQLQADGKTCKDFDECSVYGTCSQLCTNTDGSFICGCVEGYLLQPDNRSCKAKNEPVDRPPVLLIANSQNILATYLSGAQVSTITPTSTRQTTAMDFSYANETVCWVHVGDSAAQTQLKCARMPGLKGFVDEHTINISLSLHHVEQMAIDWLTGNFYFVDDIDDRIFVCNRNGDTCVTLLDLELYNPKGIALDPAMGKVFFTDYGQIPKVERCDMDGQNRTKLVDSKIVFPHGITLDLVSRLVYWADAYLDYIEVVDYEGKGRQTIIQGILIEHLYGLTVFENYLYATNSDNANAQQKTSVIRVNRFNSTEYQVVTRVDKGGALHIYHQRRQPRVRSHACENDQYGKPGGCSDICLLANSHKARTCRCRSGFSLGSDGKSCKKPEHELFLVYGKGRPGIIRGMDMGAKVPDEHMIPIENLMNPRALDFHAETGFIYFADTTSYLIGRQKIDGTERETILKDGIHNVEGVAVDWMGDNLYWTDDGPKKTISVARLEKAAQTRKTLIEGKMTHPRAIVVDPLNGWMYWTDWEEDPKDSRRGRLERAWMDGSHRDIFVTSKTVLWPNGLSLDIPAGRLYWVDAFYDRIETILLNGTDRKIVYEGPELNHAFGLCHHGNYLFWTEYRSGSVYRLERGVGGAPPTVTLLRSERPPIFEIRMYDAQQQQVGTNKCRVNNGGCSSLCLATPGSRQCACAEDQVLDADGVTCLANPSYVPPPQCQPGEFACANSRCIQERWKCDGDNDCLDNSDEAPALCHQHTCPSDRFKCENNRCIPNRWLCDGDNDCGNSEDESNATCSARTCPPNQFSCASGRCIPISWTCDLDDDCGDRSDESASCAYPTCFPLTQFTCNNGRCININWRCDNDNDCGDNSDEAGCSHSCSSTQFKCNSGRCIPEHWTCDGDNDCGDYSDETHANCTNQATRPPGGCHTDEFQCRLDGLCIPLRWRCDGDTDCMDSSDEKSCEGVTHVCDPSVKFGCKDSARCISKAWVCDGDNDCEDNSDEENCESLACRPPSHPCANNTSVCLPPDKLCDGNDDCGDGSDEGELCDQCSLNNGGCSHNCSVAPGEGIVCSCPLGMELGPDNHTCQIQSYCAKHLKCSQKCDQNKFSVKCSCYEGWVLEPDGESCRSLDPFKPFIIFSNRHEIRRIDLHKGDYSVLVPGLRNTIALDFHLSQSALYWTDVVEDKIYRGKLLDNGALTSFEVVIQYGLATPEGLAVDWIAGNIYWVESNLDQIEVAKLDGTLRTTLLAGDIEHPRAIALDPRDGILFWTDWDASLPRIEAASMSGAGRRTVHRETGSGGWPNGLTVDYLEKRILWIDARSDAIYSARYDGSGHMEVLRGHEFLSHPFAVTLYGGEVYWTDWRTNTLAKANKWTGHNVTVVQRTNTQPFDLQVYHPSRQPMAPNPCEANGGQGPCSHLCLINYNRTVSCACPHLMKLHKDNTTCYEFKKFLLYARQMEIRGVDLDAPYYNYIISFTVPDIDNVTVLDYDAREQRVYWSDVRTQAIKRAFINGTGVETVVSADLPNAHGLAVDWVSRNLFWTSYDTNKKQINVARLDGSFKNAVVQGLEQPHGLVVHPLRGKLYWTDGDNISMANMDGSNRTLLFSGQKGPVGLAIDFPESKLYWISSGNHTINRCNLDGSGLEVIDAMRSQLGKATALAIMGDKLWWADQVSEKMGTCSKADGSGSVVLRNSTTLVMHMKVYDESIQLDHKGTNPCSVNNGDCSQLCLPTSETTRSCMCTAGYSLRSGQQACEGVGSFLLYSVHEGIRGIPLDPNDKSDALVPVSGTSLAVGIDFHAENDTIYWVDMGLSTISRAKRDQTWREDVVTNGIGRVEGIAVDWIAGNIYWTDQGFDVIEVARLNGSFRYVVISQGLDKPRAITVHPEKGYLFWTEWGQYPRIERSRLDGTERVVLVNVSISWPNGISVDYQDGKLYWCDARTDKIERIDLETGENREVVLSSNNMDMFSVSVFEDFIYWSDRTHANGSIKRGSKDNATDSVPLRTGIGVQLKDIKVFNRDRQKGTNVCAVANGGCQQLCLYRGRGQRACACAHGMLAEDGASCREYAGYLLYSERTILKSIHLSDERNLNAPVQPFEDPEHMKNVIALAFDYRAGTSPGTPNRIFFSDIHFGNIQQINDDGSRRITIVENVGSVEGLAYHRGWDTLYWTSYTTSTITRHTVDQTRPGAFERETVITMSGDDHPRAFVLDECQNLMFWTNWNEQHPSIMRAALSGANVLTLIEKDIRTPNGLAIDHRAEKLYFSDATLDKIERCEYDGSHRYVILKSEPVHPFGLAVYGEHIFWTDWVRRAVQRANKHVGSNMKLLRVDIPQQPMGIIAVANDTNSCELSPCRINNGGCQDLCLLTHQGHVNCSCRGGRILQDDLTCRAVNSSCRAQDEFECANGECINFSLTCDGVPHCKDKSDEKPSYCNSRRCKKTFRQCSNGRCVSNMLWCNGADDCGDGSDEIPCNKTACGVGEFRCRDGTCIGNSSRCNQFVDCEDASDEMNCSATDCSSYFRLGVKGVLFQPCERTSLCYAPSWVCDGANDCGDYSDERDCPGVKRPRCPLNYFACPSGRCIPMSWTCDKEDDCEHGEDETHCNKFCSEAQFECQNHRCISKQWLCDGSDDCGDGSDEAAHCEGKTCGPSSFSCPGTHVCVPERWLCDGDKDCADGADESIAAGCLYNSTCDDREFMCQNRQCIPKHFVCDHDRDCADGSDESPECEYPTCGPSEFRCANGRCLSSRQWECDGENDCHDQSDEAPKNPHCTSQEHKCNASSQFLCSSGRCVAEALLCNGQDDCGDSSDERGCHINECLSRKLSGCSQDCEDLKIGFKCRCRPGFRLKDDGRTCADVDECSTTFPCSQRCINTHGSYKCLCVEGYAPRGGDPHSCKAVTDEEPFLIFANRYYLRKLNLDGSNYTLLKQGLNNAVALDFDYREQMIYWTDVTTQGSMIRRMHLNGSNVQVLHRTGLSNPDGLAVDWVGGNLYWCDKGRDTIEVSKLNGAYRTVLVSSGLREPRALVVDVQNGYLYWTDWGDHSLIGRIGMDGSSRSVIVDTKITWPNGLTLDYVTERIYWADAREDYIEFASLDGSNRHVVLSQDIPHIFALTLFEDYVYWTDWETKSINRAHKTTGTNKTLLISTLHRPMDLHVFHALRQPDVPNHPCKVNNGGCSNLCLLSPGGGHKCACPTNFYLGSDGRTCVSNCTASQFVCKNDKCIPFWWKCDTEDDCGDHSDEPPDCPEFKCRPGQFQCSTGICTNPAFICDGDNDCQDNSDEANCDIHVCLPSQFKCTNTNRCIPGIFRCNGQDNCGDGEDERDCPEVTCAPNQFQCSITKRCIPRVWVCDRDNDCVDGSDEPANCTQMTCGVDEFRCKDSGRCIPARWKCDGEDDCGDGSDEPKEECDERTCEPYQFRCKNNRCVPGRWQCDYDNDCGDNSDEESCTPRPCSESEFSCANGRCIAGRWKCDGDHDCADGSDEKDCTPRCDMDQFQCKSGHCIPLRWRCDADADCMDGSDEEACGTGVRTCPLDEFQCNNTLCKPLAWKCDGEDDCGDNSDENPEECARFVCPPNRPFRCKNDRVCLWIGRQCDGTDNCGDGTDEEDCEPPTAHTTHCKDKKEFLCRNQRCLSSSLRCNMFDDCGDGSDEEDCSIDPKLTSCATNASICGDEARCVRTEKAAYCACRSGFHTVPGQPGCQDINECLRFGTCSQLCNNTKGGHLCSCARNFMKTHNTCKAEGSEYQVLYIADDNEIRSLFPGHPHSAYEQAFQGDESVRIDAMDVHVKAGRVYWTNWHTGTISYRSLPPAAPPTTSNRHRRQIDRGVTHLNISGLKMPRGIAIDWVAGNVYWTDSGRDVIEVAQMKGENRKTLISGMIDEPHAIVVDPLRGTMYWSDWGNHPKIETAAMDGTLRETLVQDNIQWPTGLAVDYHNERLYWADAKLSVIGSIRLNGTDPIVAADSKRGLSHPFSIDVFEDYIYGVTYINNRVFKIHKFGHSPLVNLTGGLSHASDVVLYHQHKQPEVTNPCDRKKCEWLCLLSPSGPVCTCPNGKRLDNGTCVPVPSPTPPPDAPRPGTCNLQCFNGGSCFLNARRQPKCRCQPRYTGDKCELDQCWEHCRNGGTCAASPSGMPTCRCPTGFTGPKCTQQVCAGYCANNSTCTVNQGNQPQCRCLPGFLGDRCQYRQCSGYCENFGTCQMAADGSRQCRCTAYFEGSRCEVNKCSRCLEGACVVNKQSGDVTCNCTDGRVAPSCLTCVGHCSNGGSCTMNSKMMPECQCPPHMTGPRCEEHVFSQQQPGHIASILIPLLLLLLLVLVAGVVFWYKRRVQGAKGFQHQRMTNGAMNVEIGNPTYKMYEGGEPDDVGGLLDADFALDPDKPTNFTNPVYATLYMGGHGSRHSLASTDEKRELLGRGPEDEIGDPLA

Fold change [1]: 32 fold
Kd [2]: 1770 nM
Substance: 14-1B R76E PAI-1 (from UniProt P05121 24-402)

Reference: patent US20220372111A1
